Legend:
HSP70 (ATP-bound) = HSP70 (ATP-bound) (human); experiment: ITC, ATP
HSP70 (ADP-bound) = HSP70 (ADP-bound) (human); experiment: ITC, ADP
Sequence of HSP70 (ADP-bound) (human) (chain, as listed by the source): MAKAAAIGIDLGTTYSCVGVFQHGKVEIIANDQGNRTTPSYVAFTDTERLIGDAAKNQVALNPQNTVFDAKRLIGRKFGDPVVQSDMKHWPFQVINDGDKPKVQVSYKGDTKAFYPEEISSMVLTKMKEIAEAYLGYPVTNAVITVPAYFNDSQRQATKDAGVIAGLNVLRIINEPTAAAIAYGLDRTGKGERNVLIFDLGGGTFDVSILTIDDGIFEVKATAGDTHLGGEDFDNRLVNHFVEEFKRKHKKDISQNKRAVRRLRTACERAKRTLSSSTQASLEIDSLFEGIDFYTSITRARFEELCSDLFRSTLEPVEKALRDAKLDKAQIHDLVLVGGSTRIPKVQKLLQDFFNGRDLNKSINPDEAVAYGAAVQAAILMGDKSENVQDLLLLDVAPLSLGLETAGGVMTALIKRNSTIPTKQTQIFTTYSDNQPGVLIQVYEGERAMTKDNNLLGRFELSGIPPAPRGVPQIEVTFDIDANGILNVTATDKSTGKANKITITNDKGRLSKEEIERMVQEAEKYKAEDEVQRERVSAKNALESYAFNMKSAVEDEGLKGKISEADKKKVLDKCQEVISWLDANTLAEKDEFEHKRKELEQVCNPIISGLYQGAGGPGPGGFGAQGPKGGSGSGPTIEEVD

Sequence of HSP70 (ATP-bound) (human) (chain, as listed by the source): as above

In the case of NRLLLTG [NRLLLTG peptide], the Kd (HSP70 (ATP-bound)) is reported as 1250 µM and the Kd (HSP70 (ADP-bound)) is reported as 10 µM.
